Data on 16 sequences can be found in the DeepSol protein solubility set.

The data set is described as follows: soluble on expression in E. coli; label from the status in PepcDB or PDB records.
Turning to “MGSDKIHHHHHHMSHRKALLIHNGNAANKNIEKALGAVVPVLSHHLDEVIIKQTKKKDHAYHFCRSIDDSVDTVFILGGDGTIHQCINAISALERKPAVGILPGGTSNDFSRVLGIPQNLAKAAEALMAGKKTSVDVCQMNDRYFLNFWGIGLIAETSNQINETEKALLGKISYFTSALRTVSSAASFPMTLKIDGEEIKEEAVMLLVMNGQYIGTNRIPLPDASIEDGLLDVLICRNTNLTALRELMSMEQGSIDRFTGELSYVQASRIEIETDTAKKADMDGEVYTHTPAVIQVLPQHIDMLVPANE”, the “soluble on expression in E. coli” value is “not soluble”.

Regarding “MGSDKIHHHHHHMSIEAYDQLAIFAVVARERSFTRAAARLGMSQPALSRAMRQLEERLGIRLLARTTRSVSATEAGEHLLRVVAPRFEEIDTELALLSQFRDKPAGRLRITAGEHPAVTILQPALAKILPDHPDIRVEVIVDYGLTDIVAEGYDAGVRLGEQIAKDMIAVRIGPEVRMAVVGSPDYFARHPRPRTPRDLIRHNCIAIRLPTYGGIFPWEFEKKGEELKVRVEGQLVFNNIAMRLDAALRGLGLTYMPEDLVKAHVREGVLVRVLSDWCPPIPGYHLYYPSRRQSSPAFTVLRDALRYLG”, the “soluble on expression in E. coli” value is “not soluble”.

As for “MGSDKIHHHHHHMSIFVKTFGGTRVIKDNDIVSARDWPSQKAFALFRYLIFRRNEEVSVEEIYNLFWEDMDDTFAKSNLNTTLHIIRKTTGITSEELFVKGDLCCFFPGGEITIDADIFEECHRNLMKATSDAEREKLLKRMFEIYTGPFLVEDIFAEWVQEIREIYESWYSDVLKELFKLYLSKKDYDAALEMVNAYFQREPYDEDMYYRAIEVLLKKGDITRAKRVYDKLSSHLMEIGIKPRLKFDDFLSKRDSEFMLNGNKAVVVDEKLFERFLFLESRRREKSFVLVEVKLTDKSISTEDVSQRVASQLRKGDVITFSGETIRILFHCPEQRRPTMEKRVVDALEKVGVKKGQYEIS”, the “soluble on expression in E. coli” value was “not soluble”.

On to “MGSDKIHHHHHHMSILEVKNLSHGFGDRAIFEDVSFRLLKGEHIGLVGANGEGKSTFMSIVTGKMLPDEGKVEWSKYVTAGYLDQHSVLAERQSVRDVLRTAFDELFKAEARINDLYMKMAEDGADVDALMEEVGELQDRLESRDFYTLDAKIDEVARALGVMDFGMDTDVTSLSGGQRTKVLLAKLLLEKPDILLLDEPTNYLDAEHIDWLKRYLQNYENAFVLISHDIPFLNDVINIVYHVENQQLTRYSGDYYQFQEVYAMKKSQLEAAYERQQKEIADLKDFVARNKARVATRNMAMSRQKKLDKMDIIELQSEKPKPSFDFKPARTPGRFIFQAKNLQIGYDRPLTKPLNLTFERNQKVAIIGANGIGKTTLLKSLLGIISPIAGEVERGDYLELGYFEQEVEGGNRQTPLEAVWNAFPALNQAEVRAALARCGLTTKHIESQIQVLSGGEQAKVRFCLLMNRENNVLVLDEPTNHLDVDAKDELKRALKEYRGSILMVCHEPDFYEGWIDQIWDFNNLT”, for which the “soluble on expression in E. coli” value is reported as “not soluble”.

Turning to “MGSDKIHHHHHHMSISLNTCILILKEHHLLKSSAVQDTVATKMDYVSYDSRDIQTNTLFFCKGAGFRPTYLSMAKSNGANCYVAEQPYPEGKGMHALIVRDVSKAMALLSAAFFRFPQDDLYVVAFTGTKGKTTSAYFLKGMLDQANGGRTALISSVNDVVGPKPEDSFKSSLTTPESLDLFRDMRTAVDNGMTHLVMEVSSQAYKKNRVFGLTYDLGFFLNISPDHIGPNEHPNFADYLHCKLQLMVNSRKCIINAETANFNEVYAAATTTTNPDSIYLFAREDFENPDLDVPIDFRFASQELDMKETRFKLFCATDKAKKLPINGDYTLKMLGDFNESNGTAAIIGAGLAGLNHDQCAKGIRNVTIPGRMQTERTKEHGMVVVDYAHNKASMMALMRFMQNEFNDPKIIVVVGAPGDKGVSRRPGFSESLSAYADKAFLTTDDPGFEDPKSIAEEIDAGIDHSKCDVTIELDRKKAIHDAIASAGPDDVVLICGKGADAFQKIRGVDTPYPSDIVVAQQVINELEGQDEHFRK”, the “soluble on expression in E. coli” value is “not soluble”.

As for “MGSDKIHHHHHHMSISVKSNRALFDLDLLRAIVVVADCGSFTTAAARLHSTQSTISQKVRRLEDMVGHRLLVRGNRDVLPTDAGQTLLGYARHMLALNDQMLEALAGAMVGTTVRLGVPEDFVGGRTTNALSAFSRLHPQVKLEVTSGLCRDLSQAYDNGELDLVLLKQRRNSREGVACWPERLQWIDSARTPAFELDPIPLVTFPPRGLYREDMINAIEGMGRRWRISFTSSSLSGIQAAVADGMGISLLPPRAATGEHRVLGAGQGLPEVDSYEIVIVHRPTADVMVKALAEVMTQLLAGGGI”, the “soluble on expression in E. coli” value is “not soluble”.

Consider “MGSDKIHHHHHHMSKFINPFTDYGFKLIFGREVSKDLLIEFLNDLLEGERVITDLTFLNNEQLPDYPEGRGIIYDVYCTTDTGEKIIVEMQNRMQSNFKERSIFYLSRAIVNQGRTGHDWKFEIKAVYGVFLMNFIMDKNIKLRTDVILADKETGELFSEKFRQIFIALPLFKKSEEECETNFERWIYILNNMETLKRLPFKARKAVFEKLEEIADVASMSPKERELYDNSVKVYRDYLVTMDAAEKEGIKKGMKEGMKEGLKKGLEEGLEEGLKKGREEALNIFQTAIDMKKQGIDNQLIAEKTGLPLSLIESLK”, for which the “soluble on expression in E. coli” value is “not soluble”.

As for “MGSDKIHHHHHHMSKLDAFIQQAVTAMPISGTSLIASLYGDALLQRGGEVWLGSVAALLEGLGFGERFVRTALFRLNKEEWLDVVRIGRRSFYRLSDKGLRLTRRAEHKIYRASAPEWDGTWLLLLSEGLEKNVLADVKKQLLWQGFGALAPSLLASPSQKLADVQSLLHEAGVAENVICFEAHSPLALSRAALRDRVEECWHLTEQNEMYEAFIALFRPLLPLLRDSEPSELTPERCFQIQLLLIHFYRRVVLKDPLLPEELLPAHWAGQTARQLCINIYQRVSPGALAFVSEKGESSVGELPAPGPLYYQRFGGLPGA”, the “soluble on expression in E. coli” value was “not soluble”.

For the sequence “MGSDKIHHHHHHMSKLLMIGTGPVAIQLANICYLKSDYEIDMVGRASTSEKSKRLYQAYKKEKQFEVKIQNEAHQHLEGKFEINRLYKDVKNVKGEYETVVMACTADAYYDTLQQLSLETLQSVKHVILISPTFGSQMIVEQFMSKFSQDIEVISFSTYLGDTRIVDKEAPNHVLTTGVKKKLYMGSTHSNSTMCQRISALAEQLKIQLEVVESPLHAETRNSSLYVHPPLFMNDFSLKAIFEGTDVPVYVYKLFPEGPITMTLIREMRLMWKEMMAILQAFRVPSVNLLQFMVKENYPVRPETLDEGDIEHFEILPDILQEYLLYVRYTAILIDPFSQPDENGHYFDFSAVPFKQVYKNEQDVVQIPRMPSEDYYRTAMIQHIGKMLGIKTPMIDQFLTRYEASCQAYKDMHQDQQLSSQFNTNLFEGDKALVTKFLEINRTLS”, the “soluble on expression in E. coli” value is recorded as “not soluble”.

In the case of “MGSDKIHHHHHHMSKTKEQVVELAQKHGITIQEGSLILNESGLDFQVVFALDVNGKRWVLRLPRREDVVPSTAKEKKTLELIAPHLSVQVPNWEVYSVEMIAYKQLKGVPAATIDHGKKAYVWEMDHTNVSDRFIDTLASGMASLHQIKQDEARRAGVPAEQATEARERMSVRMEKVKSEFGVSEPLWARWQKWLHHDALWPAETGLVHGDLHAGHILIGEQTEVTGFIDWTEAQVTDLSEDFVPHYRIFGEAALNRLIAAYEEAGGYVWPSMKEHVIEREAAFPVAIAEFALKSGIGEYKRMAKEVLGVAE”, the “soluble on expression in E. coli” value was “not soluble”.

In the case of “MGSDKIHHHHHHMSLLSDEEVNSLSIQRMIFHVVDPALENPTFLAEVNPPQCVDFFVERVKETLKGSAYEFVPGAGIPNLLHRALPGPDGKDDFITVSHALAERFKDKVKQDKRLAPGVLMLFALKTNGNNQLVAVIKYEHQQVVSYSYVKDTNGSPVLDADGNPVPDLKTLVETFTKDRKAMQKSAVIRFQNINSSGGGTFSSSAVVIDHSSGRYRDATQHFANFLDIRRALKPSELTKRLEDAAVEAIKAHRSEVPTEIAKAPKRHVRTAMSRLDGFDFEKPEEFLGAVLQGVSPDSKILKTFKSKLASKNISTEAFKFEGATPPPAEYRRVVTNEGVTLLFSAGHEEKKNVEIQDEENGGVKITIRTTGLERNDELEKMPRLPD”, the “soluble on expression in E. coli” value is on record as “not soluble”.

Regarding “MGSDKIHHHHHHMSLLSVSDVGKAYKTYRSELQRIAHWFFLPTKASSEHWVLKHINFAIEPGEAIGIIGQNGAGKSTLLKMITGTLQPTQGRVQVNGRIAAILELGMGFNPELSGRQNVYHAAGLMGFDVQQINDVIDDIEAFAEIGEYFDEAVRTYSSGMQMRVAFAVATAFRPEILIVDEALSVGDSYFQHKSFERIREFQRLGTSLLIVSHDRGAIQSLCSRALLLENGSIIKDGPPEQVMDYYNALIAEKENSTVQVKQLADGTVQTQSGSGEATIGTVALYDMQGTPVEFVAVGDKVTLSVQVEVHAPIPELVVGYVIKDRLGQHVFGTNTHHLGKAQKALETGEKLEYRFDFEMNLGPGSYSVAVALHANEVHIGSNYEWRDLALVFNVVNTSKPQFVGMAWVPTAVECIR”, the “soluble on expression in E. coli” value was “not soluble”.

In the case of “MGSDKIHHHHHHMSLLVKAYRYGYTIARVTPASACWRYVGFAAYRLGTAEVVHVHEPSREVCIVVLTGTVDIETADTTWRSLGSRDSVFEDAAPYAVYLPPNVRATVRACRDAEIGVASAPARGGYPARLIEPASMKRSTRGKGLNTRYVCDILPQTEPAESLLVVEVRTPGGHASSYPPHKHDTDNVPQESSLEETYYHRLDPPQGFAFQRVYTDMRDIDESMAVEDHDVVMVPRGYHPVVVPYGYDSYYLNVMAGGKRVWHFRNDPAHEWIINKDA”, the “soluble on expression in E. coli” value is given as “not soluble”.

Regarding “MGSDKIHHHHHHMSLPGSKLEEARRLVNEKQYNEAEQVYLSLLDKDSSQSSAAAGASVDDKRRNEQETSILELGQLYVTMGAKDKLREFIPHSTEYMMQFAKSKTVKVLKTLIEKFEQVPDSLDDQIFVCEKSIEFAKREKRVFLKHSLSIKLATLHYQKKQYKDSLALINDLLREFKKLDDKPSLVDVHLLESKVYHKLRNLAKSKASLTAARTAANSIYCPTQTVAELDLMSGILHCEDKDYKTAFSYFFESFESYHNLTTHNSYEKACQVLKYMLLSKIMLNLIDDVKNILNAKYTKETYQSRGIDAMKAVAEAYNNRSLLDFNTALKQYEKELMGDELTRSHFNALYDTLLESNLCKIIEPFECVEISHISKIIGLDTQQVEGKLSQMILDKIFYGVLDQGNGWLYVYETPNQDATYDSALELVGQLNKVVDQLFEKASVLY”, the “soluble on expression in E. coli” value is given as “not soluble”.

With “MGSDKIHHHHHHMSLSSPASRPPLQIRATPVWSPQRDENAEHIVLSPDEQYELGRLGEIIEYRTAKLEILSQSEPADFLYLLIEGVVQACHSLKDGQRQIVAFYWPGDIFGLAEKGLYVNSSEAVTPCSVYRFPFRKLEKFLLEHPRIQQGFFVKAVHEIRTAQRHTITIGQLELPQRLAAFLVDCSEHDRYFDSESSTLSLPMLRYDIADYLGTSVEAVSRTFALLEKNGLVQRKGPRKLEISMKKLIDFSGIA”, the “soluble on expression in E. coli” value is given as “not soluble”.

For “MGSDKIHHHHHHMSMAMEHDLLIVGGGPVGATLALALQYKGIDATVLEARAHGAAHHDQRALALSYGSILILERLGLWSGLKPKATAINTIHVSQRGSLGRSLLKAEDHDQPALGYVLSYGDLSAALDDAIRQFPGIQVRYEAEALAIKPGREAAHVEYQYQAQAYSCNSRMTVLADGGRSLADIPGLERETKHYGHDALVSKVSCELPHDNIAYERFTPAGPVALLPNGTRDFSLVWTGKAEEVQALLALDDAAFLEALHTHFGDRVGRFLTVGKRLSFPLKLSYLKPVTAPHLTVIGNAAQTMHPVAGQGFNVGMRDAWELAQLLAQTPSEEWGMDRMMQAYQASRKADTRGGLLFTDFLVNVFSNDIVGLRKIRSLGLGLLDMLPLAKQHLVSKMSFGPRG”, the “soluble on expression in E. coli” value is “not soluble”.
